Values quoted from earlier work in article PMC6235721.

Target: FabI (Escherichia coli) (UniProt P0AEK4)
UniProt P0AEK4, sequence (P0AEK4 2-262): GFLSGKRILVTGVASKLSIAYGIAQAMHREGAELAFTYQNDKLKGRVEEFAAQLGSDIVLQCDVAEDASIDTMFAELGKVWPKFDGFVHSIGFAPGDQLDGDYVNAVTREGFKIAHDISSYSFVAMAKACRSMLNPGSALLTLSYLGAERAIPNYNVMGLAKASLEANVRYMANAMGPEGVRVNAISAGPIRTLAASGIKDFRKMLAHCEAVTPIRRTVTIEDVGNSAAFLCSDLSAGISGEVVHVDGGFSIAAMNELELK

- Kd: 712 nM
Substance: crypto-58-AcpP (from UniProt P0A6A8)
